From patent US20240360208A1 (Hoffmann-La Roche, published 2024)

How the values were obtained:
[1] = target: T1, human CCL2 (MCP1) - wild type (wt) (human, UniProt P13500 24-99); experiment: SPR T200, 25 C, anti-human Fc capture, 1:1 model, pH 8.3
T1 construct: Made in-house or bought (R&D Systems 279-MC), depending on the assay; can form dimers; also called wt human CCL2; WT human CCL2
Protocol: (§1) An antibody capture system was established. 13000 MAb<h-Fc-pan>M-R10Z8E9-IgG (Roche) were immobilized at 25° C. at 18 μg/ml in 10 mM sodium acetate buffer pH 5.0, by EDC/NHS coupling as described by the manufacturer. The capture system was regenerated by an injection at 20 μl/min with HBS buffer (100 mM HEPES pH 7.4, 1.5 M NaCl, 0.05% (w/v) Tween 20), followed by a 1 min 15 see injection with 10 mM NaOH and two 10 mM glycine buffer pH 2.5 injections for 1 min. Antibodies were captured were injected for 30 see at 10 μl/min at 80 nM concentration diluted in the respective system buffer. […] The analyte contact time was 3 min and the dissociation time was 10 min. Analyte kinetics were performed at 50 μl/min.
(§2) The Biaevaluation software V.3.0 was used according to the instructions of the manufacturer GEHC. A 1:1 binding model with RMAX local was applied to determine kinetic rates.

[2] = target: T1, human CCL2 (MCP1) - wild type (wt); experiment: SPR T200, 25 C, anti-human Fc capture, 1:1 model, pH 6.3
[3] = target: T1, human CCL2 (MCP1) - wild type (wt); experiment: SPR T200, 25 C, anti-human Fc capture, 1:1 model, pH 5.5
Protocol: as §1, §2

[4] = target: T1, human CCL2 (MCP1) - wild type (wt); experiment: cell-based or functional assay
[5] = target: T2, human CCL7 (MCP3) - wild type (wt) (human, UniProt P80098 24-99); experiment: SPR (Biacore T200), 25 °C, ACES pH 7.4; antibody captured on anti-human IgG (Fc), chemokine injected at 5 nM and 20 nM
T2 construct: Bought from R&D Systems for the homolog assay
Protocol: (§3) Biacore assay method: The binding of anti-CCL2 antibodies to the CCL homologs e.g. CCL2 (MCP-1), CCL8 (MCP-2), CCL7 (MCP-3), and CCL13 (MCP-4) were assessed at 25° C. using Biacore T200 instrument (GE Healthcare). Mouse anti-human IgG (Fc) (GE Healthcare) was immobilized on each flow cells of a CM4 sensor chip using amine coupling kit (GE Healthcare) according to the recommended settings by the manufacturer. Antibodies and analytes were diluted into ACES pH 7.4 buffer (20 mM ACES, 150 mM NaCl, 1 mg/ml BSA, 0.05% Tween 20, 0.005% NaN3). Antibodies were captured onto the anti-Fc sensor surfaces, then recombinant human CCL homologs proteins was injected over the flow cell at 5 nM and 20 nM. […] Sensor surface was regenerated each cycle with 3M MgCl2. Binding sensorgram was processed using Biacore T200 Evaluation software, version 2.0 (GE Healthcare).

[6] = target: T3, human CCL8 (MCP2) - wild type (wt) (human, UniProt P80075 24-99); experiment: as above
T3 construct: also called huCCL8
T3 sequence: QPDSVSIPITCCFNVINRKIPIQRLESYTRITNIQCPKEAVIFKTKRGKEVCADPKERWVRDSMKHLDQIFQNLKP
Protocol: as §3

[7] = target: T1, human CCL2 (MCP1) - wild type (wt); experiment: SPR T200, 25 C, anti-human Fc capture, 1:1 model, pH 7.9
Protocol: as §1, §2

[8] = target: T1, human CCL2 (MCP1) - wild type (wt); experiment: SPR T200, 25 C, anti-human Fc capture, 1:1 model, pH 7.1
Protocol: as §1, §2

[9] = target: T1, human CCL2 (MCP1) - wild type (wt); experiment: SPR T200, 37 C, antibody captured, 1:1 model
Protocol: (§4) Antibody clone supernatants were diluted 1:2 in system buffer and were captured for 1 min at 5 μl/min. […] Analyte kinetics were performed at 30 μl/min. As analyte in solution wt human CCL2 or monomeric CCL2 P8A variant CCL2 were used. Analytes were injected at 90 nM highest concentration. The analyte contact time was 3 min and the dissociation time was 10 min. The Biaevaluation software V.3.0 was used according to the instructions of the manufacturer GEHC. A 1:1 binding model with RMAX local was applied to apparently estimate kinetic rates.

[10] = target: T4, human CCL2 (MCP1) - P8A variant (human, UniProt P13500 24-99); experiment: SPR T200, 37 C, antibody captured, 1:1 model
T4 construct: In-house point mutant that cannot dimerise; also called monomeric human CCL2; monomeric CCL2
Protocol: as §4

[11] = target: T1, human CCL2 (MCP1) - wild type (wt); experiment: SPR T200, 25 C, anti-human Fc capture, 1:1 model, pH 6.7
[12] = target: T1, human CCL2 (MCP1) - wild type (wt); experiment: SPR T200, 25 C, anti-human Fc capture, 1:1 model, pH 5.9
Protocol: as §1, §2

[13] = target: T1, human CCL2 (MCP1) - wild type (wt); experiment: cell-based or functional assay; remark: listed apart in the source
[14] = target: T1, human CCL2 (MCP1) - wild type (wt); experiment: SPR T200, 25 C, anti-human Fc capture, 1:1 model, pH 8.3; pH 8.3
[15] = target: T1, human CCL2 (MCP1) - wild type (wt); experiment: SPR T200, 25 C, anti-human Fc capture, 1:1 model, pH 7.4
Protocol: as §1, §2

t 1/2-diss. [1]: 19.2 h
Kd [2]: 0.003 nM
t 1/2-diss. [2]: 19.2 h
Kd [3]: 0.01 nM
t 1/2-diss. [3]: 1.97 h
IC50, inhibition of THP-1 migration (chemotaxis assay) [4]: 0.7 µg/mL
binding result [5]: no binding (tested: 20 nM)
binding result [6]: binds
Kd [7]: 0.02 nM
t 1/2-diss. [7]: 2.75 h
Kd [8]: 0.01 nM
t 1/2-diss. [8]: 3.58 h
Kd [9]: 0.028 nM
T1/2 [9]: 1.97 h
Kd [10]: 0.035 nM
T1/2 [10]: 1.93 h
Kd [11]: 0.01 nM
t 1/2-diss. [11]: 4.87 h
Kd [12]: 0.01 nM
t 1/2-diss. [12]: 4.78 h
THP1 chemotaxis [fold change compared to IgG control] [13]: 7.2 fold
Kd [14]: ≤ 0.003 nM
Kd [15]: 0.02 nM
t 1/2-diss. [15]: 2.72 h
B1: Humanized 11K2 (=11K2) (antibody, IgG1, V domains shown)
VH: QVQLVQSGAEVKKPGSSVKVSCKASGLTISDTYMHWVRQAPGQGLEWMGRIDPANGNTKFDPKFQGRVTITADTSTSTAYMELSSLRSEDTAVYYCARGVFGFFDYWGQGTTVTVSS
VL: DIQMTQSPSSLSASVGDRVTITCKATEDIYNRLAWYQQKPGKAPKLLISGATSLETGVPSRFSGSGSGTDYTLTISSLQPEDFATYYCQQFWSAPYTFGGGTKVEIK
notes: IgG1 with kappa light chain; also called CCL2-0002; humanized 11k2 IgG1
